Experimental data: patent US11319348B2, “Synthetic beta-amyloid peptides capable of forming stable antigenic oligomers” (The Regents of the University of California, priority 2016, dated 2022)
Non-standard residues stand in square brackets, D forms with d. No end group written: not given here. NMeF = CN[C@@H](Cc1ccccc1)C(=O)O; Orn = NCCC[C@H](N)C(=O)O

Experiments:
caspase-3 = caspase-3 activation assay; assay type: cell-based, human; conditions: for caspase-3 activation / induction of caspase-3 mediated apoptosis: SH-SY5Y cells; for caspase-3 activation: 72 h; for induction of caspase-3 mediated apoptosis: trimers at 6 μM, within 72 h; for caspase-3 activity level compared to staurosporine: after treatment of SH-SY5Y cells
Method: One of the ways in which A oligomers elicit toxicity is through induction of caspase-3 mediated apoptosis. Trimers 3 and 4 were evaluated for their ability to induce caspase-3 mediated apoptosis using a rhodamine-based caspase-3 activity assay.
The toxicities of peptides 1 and […], and trimers 3 and 4 toward SH-SY5Y cells were assessed by LDH release and caspase-3 activation assays. Cells were incubated in the presence or absence of equivalent concentrations of peptides 1 or 3, or trimers 3 and 4 for 72 h in 96-well plates. The LDH release assay was performed using the Pierce LDH Cytotoxicity Assay Kit from Thermo Scientific. The caspase-3 assay was performed using the Roche APO-One Homogeneous Caspase-3/7 Assay. Experiments were performed in replicates of five and an additional 10 wells were used for controls. Cells were cultured in the inner 60 wells (rows B-G, columns 2-11) of the 96-well plate. DMEM:F12 media (100 μL) was added to the outer wells (rows A and H, columns 1 and 12), in order to ensure the greatest reproducibility of data generated in the inner wells.
SH-SY5Y cells were plated in a 96-well plate at 30,000 cells per well. Cells were incubated in 100 μL of a 1:1 mixture of DMEM:F12 media supplemented with 10% fetal bovine serum, 100 U/mL penicillin, and 100 μg/mL streptomycin at 37° C. in a 5% CO2 atmosphere and allowed to adhere to the bottom of the plate for 24 hours.
After 24 hours, the culture media was removed and replaced with 90 μL of serum-free DMEM:F12 media. A 10 μL aliquot of the working solutions of peptides 1 or 2, or trimers 3 and 4 was added to each well, for a well-concentration of 18 μM and 9 μM for peptides 1 and 2, 6 μM and 3 μM for trimer 3 or 6 μM, 3 μM, 1.5 μM, and 0.75 μM for trimer 4. Experiments were run in replicates of five. Five wells were used as controls and received a 10 μL aliquot of deionized water (vehicle). Another five wells were left untreated, to be subsequently used as controls with lysis buffer for the LDH release assay, or staurosporine for the caspase-3 activation assay. Cells were incubated at 37° C. in a 5% CO2 atmosphere for 72 hours.
After 67 hours, 10 μL of 10× staurosporine was added to the control wells, and the cells were incubated for an additional 5 h. Next, the compound-containing media was removed and replaced with 25 μL of fresh serum-free DMEM/F12 media. A 25-μL aliquot of caspase-3 substrate, prepared according to manufacturer's protocol, was then added to each well. The plate was sealed with a clear adhesive plate sealer and fluorescence was monitored over 18 h while shaking at 250 rpm using a Gemini XPS fluorescence plate reader (excitation at 499 nm, emission at 521 nm). Data from the 18 h time point were processed by subtracting the relative fluorescence units (RFU) of the vehicle control wells from the RFU of the peptides 1 and 2 or trimers 3 and 4-treated wells.

[1] = size exclusion chromatography in sodium acetate buffer; assay type: physicochemical; conditions: for oligomer state consistent with SEC elution volume: acetate buffer; for oligomer size by SEC: sodium acetate buffer pH 4.5
Method: The elution profiles in acetate buffer of trimers were compared to peptides 1 and 2. Size standards vitamin B12 (1.3 kDa), aprotinin (6.5 kDa), and […] (12.4 kDa) eluted at 18.6 mL, 15.4 mL, and 13.4 mL, respectively (FIG. 31A). Trimer 3 and […] eluted at 14.3 mL and at 14.5 mL, respectively. These elution volumes are consistent with the molecular weight of a hexamer (10.6 kDa). The peaks for trimers 3 and 4 tail slightly and may reflect a trimer-hexamer equilibrium in which the hexamer predominates.
Peptides 1 and 2 elute at 16.8 mL and 17.3 mL, respectively.
The oligomerization of peptides 1 and 2 and trimers 3 and 4 was studied by size-exclusion chromatography (SEC) at 4 CC in 50 mM sodium acetate/50 mM acetic acid buffer (sodium acetate buffer) at pH 4.5 as follows: Each peptide or trimer was dissolved in deionized water to a concentration of 10 mg/mL. The peptide or trimer solutions were then diluted to 1 mg/mL by adding 80 μL of the 10 mg/mL solutions to 720 μL of sodium acetate buffer. The peptide or trimer solutions were loaded onto a GE Superdex 75 10/300 GL column at 0.5 mL/min over 1 min. After loading, the samples were run with sodium acetate buffer at 1 mL/min, Chromatograms were recorded at 214 nm and normalized to the highest absorbance value. Standards (cytochrome C, aprotinin, and vitamin B12) were run in the same fashion.

[2] = Tricine SDS-PAGE with silver staining; assay type: physicochemical
Excerpt: Trimer 3 migrates as a single band at a molecular weight consistent with a hexamer. Trimer 4, in contrast, migrates as two distinct bands: a band consistent with the molecular weight of a dodecamer, and a band consistent with the molecular weight of a trimer.
Peptide 8 assembles to form a hexamer in SDS-PAGE. […] To further confirm the oligomerization state of […], it was compared to covalent trimers 3 and 4 (FIGS. 19A and 19B), which was previously determined to migrate respectively as 10.6 kDa hexamers and 21.2 kDa dodecamers in equilibrium with the 5.3 kDa trimers. Peptide 8 migrates at the same molecular weight as the hexamer band of trimer 3, providing further evidence that peptide 8 assembles to form a hexamer in SDS-PAGE.
The oligomerization of peptides 1 and 2 and trimers 3 and 4 was studied by Tricine SDS-PAGE.
Each peptide or trimer was dissolved in deionized water to a concentration of 10 mg/mL. An aliquot of the 10 mg/mL solutions was diluted with deionized water to create 2 mg/mL solutions of peptides 1 and 2, or 0.12 mg/mL solutions of trimers 3 and 4. The […] of peptides 1 and 2, as well as the 0.12 mg/mL solutions of trimers 3 and 4 were further diluted with 2×SDS-PAGE loading buffer (100 mM Tris buffer at pH 6.8, 20% (v/v) glycerol, and 4% SDS) to create 1 mg/mL working solutions of peptides 1 and 2, and 0.06 mg/mL working solutions of trimers 3 and 4. A 5 μL aliquot of each working solution was run on a 16% polyacrylamide gel with a 4% stacking polyacrylamide gel. The gels were run at a constant 60 volts at 4° C.
Staining with silver nitrate was used to visualize peptides 1 and 2 and trimers 3 and 4 in the SDS-PAGE gel. Briefly, the gel was removed from the casting glass and rocked in fixing solution (50% (v/v) methanol and 5% (v/v) acetic acid in deionized water) for 20 min. Next, the fixing solution was discarded and the gel was rocked in 50% (v/v) methanol for 10 min. Next, the 50% methanol was discarded and the gel was rocked in deionized water for 10 min. Next, the water was discarded and the gel was rocked in 0.02% (w/v) sodium thiosulfate in deionized water for 1 min. The sodium thiosulfate was discarded and the gel was rinsed with deionized water (2×). After the last rinse, the gel was submerged in chilled 0.1% (w/v) silver nitrate in deionized water and rocked at 4° C. for 20 min. Next, the silver nitrate solution was discarded and the gel was rinsed with deionized water (2×). To develop the gel, the gel was incubated in developing solution (2% w/v sodium carbonate, 0.04% formaldehyde until the desired intensity of staining was reached (˜1-3 min). When the desired intensity of staining was reached, the development was topped by discarding the developing solution and submerging the gel in 5% acetic acid.

caspase-3 activation (caspase-3) | caspase-3 activity level compared to staurosporine (caspase-3) | Substance | induction of caspase-3 mediated apoptosis (caspase-3) | oligomer state consistent with SEC elution volume [1] | oligomer size by SEC [1] | oligomer size by SDS-PAGE [2] | oligomer state by migration in SDS-PAGE [2]
no | – | peptide 2: macrocyclic β-sheet peptide: Aβ17-23 and Aβ30-36 strands linked by two δOrn turns, Orn35, N-methyl on F20 (Seq. ID 20-21) | little or no effect | dimers | 1-2 | 1-2 | monomer or dimer
yes | comparable | trimer 3: symmetric tris-disulfide crosslinked trimer generated from peptide 3 (chain 1 [Orn]CVFFCED; chain 2 [Orn]AIIGL[Orn]V; not fully specified (some residues); also: symmetric tris-disulfide crosslinked trimer, macrocyclic by macrolactamization, linkage of strands not given here) | induced apoptosis | hexamer | 6 | 6 | hexamer
yes | comparable | trimer 4: symmetric tris-disulfide crosslinked trimer generated from peptide 4 (chain 1 [Orn]CVF[NMeF]CED; chain 2 [Orn]AIIGL[Orn]V; also: symmetric tris-disulfide crosslinked trimer, macrocyclic by macrolactamization, linkage of strands not given here) | induced apoptosis | hexamer | 6 | – | –

Substance | caspase-3 activation (caspase-3) | caspase-3 activity level compared to staurosporine (caspase-3) | induction of caspase-3 mediated apoptosis (caspase-3) | oligomer state consistent with SEC elution volume [1] | oligomer size by SEC [1] | oligomer size by SDS-PAGE [2] | oligomer state by migration in SDS-PAGE [2]
peptide 1: macrocyclic β-sheet peptide: Aβ17-23 and Aβ30-36 strands linked by two δOrn turns, Orn35, N-methyl on G33 (Seq. ID 18-19) | no | – | little or no effect | dimers | 1-2 | 1-2 | –
